Assay results taken from patent US20180079819A1.

Experiments:
[1] = target: IL3Rα (1-100) chimeric receptor protein: IL3Rα residues 1-100 fused to GMRα residues 115-325, His-tagged (human) (UniProt P15509); experiment: ELISA on plate-coated His-tagged protein, A450
[2] = target: extracellular domain of CD123/IL-3Rα (residues 1-306), histidine tagged (human) (UniProt P26951); experiment: ELISA on plate-coated His-tagged protein, A450
Sequence of extracellular domain of CD123/IL-3Rα (residues 1-306), histidine tagged (human) (P26951 19-306): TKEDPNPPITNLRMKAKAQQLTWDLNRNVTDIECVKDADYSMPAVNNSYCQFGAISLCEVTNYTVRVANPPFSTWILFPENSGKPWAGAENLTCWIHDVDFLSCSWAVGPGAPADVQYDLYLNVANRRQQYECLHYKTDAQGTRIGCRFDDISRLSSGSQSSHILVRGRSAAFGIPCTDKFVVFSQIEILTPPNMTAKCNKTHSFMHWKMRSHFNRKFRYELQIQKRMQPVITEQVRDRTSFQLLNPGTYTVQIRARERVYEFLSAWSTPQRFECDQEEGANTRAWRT

Sequence of IL3Rα (1-100) chimeric receptor protein: IL3Rα residues 1-100 fused to GMRα residues 115-325, His-tagged (human) (P15509 other isoform, or with tags, fused parts or gaps mutant limits assumed, form in doubt): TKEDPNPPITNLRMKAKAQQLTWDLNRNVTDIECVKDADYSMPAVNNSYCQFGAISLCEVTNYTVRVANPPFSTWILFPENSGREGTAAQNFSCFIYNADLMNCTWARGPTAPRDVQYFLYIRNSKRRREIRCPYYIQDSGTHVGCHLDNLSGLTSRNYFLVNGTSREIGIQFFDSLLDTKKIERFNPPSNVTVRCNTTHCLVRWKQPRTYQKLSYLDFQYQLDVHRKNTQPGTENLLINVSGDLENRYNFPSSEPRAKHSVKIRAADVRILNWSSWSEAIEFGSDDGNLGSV

EC50 [1]: 0.0306 nM
EC50 [2]: 0.027 nM
Substance: ch7G3 (antibody)
